Measured values reported in PMC5701055 (Nature Communications, 2017).

Biological target: the molecule itself
Assay: crystal structure

B1: soluble ectodomain of human aminopeptidase N (hAPN), residues 66–967, WT (receptor)
chain: DQSKAWNRYRLPNTLKPDSYRVTLRPYLTPNDRGLYVFKGSSTVRFTCKEATDVIIIHSKKLNYTLSQGHRVVLRGVGGSQPPDIDKTELVEPTEYLVVHLKGSLVKDSQYEMDSEFEGELADDLAGFYRSEYMEGNVRKVVATTQMQAADARKSFPCFDEPAMKAEFNITLIHPKDLTALSNMLPKGPSTPLPEDPNWNVTEFHTTPKMSTYLLAFIVSEFDYVEKQASNGVLIRIWARPSAIAAGHGDYALNVTGPILNFFAGHYDTPYPLPKSDQIGLPDFNAGAMENWGLVTYRENSLLFDPLSSSSSNKERVVTVIAHELAHQWFGNLVTIEWWNDLWLNEGFASYVEYLGADYAEPTWNLKDLMVLNDVYRVMAVDALASSHPLSTPASEINTPAQISELFDAISYSKGASVLRMLSSFLSEDVFKQGLASYLHTFAYQNTIYLNLWDHLQEAVNNRSIQLPTTVRDIMNRWTLQMGFPVITVDTSTGTLSQEHFLLDPDSNVTRPSEFNYVWIVPITSIRDGRQQQDYWLIDVRAQNDLFSTSGNEWVLLNLNVTGYYRVNYDEENWRKIQTQLQRDHSAIPVINRAQIINDAFNLASAHKVPVTLALNNTLFLIEERQYMPWEAALSSLSYFKLMFDRSEVYGPMKNYLKKQVTPLFIHFRNNTNNWREIPENLMDQYSEVNAISTACSNGVPECEEMVSGLFKQWMENPNNNPIHPNLRSTVYCNAIAQGGEEEWDFAWEQFRNATLVNEADKLRAALACSKELWILNRYLSYTLNPDLIRKQDATSTIISITNNVIGQGLVWDFVQSNWKKLFNDYGGGSFSFSNLIQAVTRRFSTEYELQQLEQFKKDNEETGFGSGTRALEQALEKTKANIKWVKENKEVVLQWFTENSK
binding result: binds
